Results as given in CN113912731A (SHENGHE CHINA BIO PHARMACY CO LTD, dated 2022).

How the values were obtained:
[1] = target: T1, 人FGL1-his蛋白(Sinobio;Cat:13484-H08B) (human, UniProt Q08830 23-312); experiment: ELISA, plate coated with human FGL1-his
T1 construct: Bought protein; also called 重组人FGL1-his蛋白; not shown: his tag
T1 sequence (looked up): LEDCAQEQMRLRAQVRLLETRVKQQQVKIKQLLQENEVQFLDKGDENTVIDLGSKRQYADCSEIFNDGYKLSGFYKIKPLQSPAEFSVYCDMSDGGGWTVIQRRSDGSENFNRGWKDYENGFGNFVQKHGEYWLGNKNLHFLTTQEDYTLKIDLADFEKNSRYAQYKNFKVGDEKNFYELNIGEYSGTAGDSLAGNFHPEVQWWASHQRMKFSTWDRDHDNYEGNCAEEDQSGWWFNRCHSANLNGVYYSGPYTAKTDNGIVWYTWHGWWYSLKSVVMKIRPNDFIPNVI

鼠FGL1-his = target: T2, 鼠FGL1-his (mouse, UniProt Q71KU9 23-314, limits assumed); experiment: human/mouse cross-reactivity (ELISA of Example 8)
T2 construct: also called 小鼠FGL1蛋白; 鼠FGL1蛋白; not shown: his tag
T2 sequence (looked up): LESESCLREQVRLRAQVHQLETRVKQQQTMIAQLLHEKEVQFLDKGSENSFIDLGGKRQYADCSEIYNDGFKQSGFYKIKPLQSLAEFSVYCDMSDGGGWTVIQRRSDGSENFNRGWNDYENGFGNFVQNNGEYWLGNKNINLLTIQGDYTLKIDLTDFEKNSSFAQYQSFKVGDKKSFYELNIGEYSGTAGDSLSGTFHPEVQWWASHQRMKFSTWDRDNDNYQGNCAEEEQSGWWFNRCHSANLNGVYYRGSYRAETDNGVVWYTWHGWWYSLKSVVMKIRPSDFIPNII

B1: SH-04 (antibody, V domains shown)
VH: EVQLQQSGPELEKPGASVKMSCKASGYTFTRYWMHWVKQRPGQGLEWIGMIDPSDSYTSYNQKFKGKATLTVDTSSSTAYMQLSSLTSEDSAVYYCTLRPGLDYWGQGTTLTVSS
VL: DIVMTQSQKFMSTSVGDRVSVTCKASQNVGTNVAWYQQKPGQSPKALIYSASYRYSGVPDRFTGSGSGTDFTLTISNVQSEDLAEYFCQQYNSYPLTFGGGTKLEIK
notes: From hybridoma; also called 抗体SH-04; not shown: 轻链恒定区
binding result [1]: binds

B2: SH-07 (antibody, V domains shown)
VH: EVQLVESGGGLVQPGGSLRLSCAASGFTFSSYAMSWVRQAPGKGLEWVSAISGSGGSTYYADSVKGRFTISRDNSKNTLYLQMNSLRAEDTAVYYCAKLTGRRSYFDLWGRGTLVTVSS
VL: DIQMIQSPSSLSASVGDRVTITCRASQSISHYLNWYQQKPGKVPKLLIYAASSLQSGVPSRFSGSGSGTDFTLTISSLQPEDFATYYCQQSYSTPSFGQGTKVEIK
notes: From the human natural phage display library; also called 抗体SH-07; not shown: 轻链恒定区
binding result [1]: binds
binding result (鼠FGL1-his): binds

B3: SH-06 (antibody, V domains shown)
VH: QVQLQESGPGLVKPSQTLSLTCTVSGGSISSGGYYWSWIRQHPGKGLEWIGYIYYSGSTYYNPSLKSRVTISVDTSKNQFSLKLSSVTAADTAVYYCARDSVMGYAPRVRAFDIWGQGTMVTVSS
VL: QSALTQPPSASGTPGQRVTISCSGSSSNIGTNTVNWYQQLPGTAPKLLIYSTNQRPSGVPDRFSGSKSGTSASLAISGLQSEDEADYYCSSWAGDLNGRLFGGGTKLTVL
notes: From the human natural phage display library; also called 抗体SH-06; not shown: 轻链恒定区
binding result [1]: binds

B4: SH-10 (antibody, human IgG1, V domains shown)
VH: EVQLVESGGGLVQPGGSLRLSCAASGDTLDYYAIGWFRQAPGKEREGVSCIRSSGSGPHYSDSVQDRFIISRDNARGTVYLQMNSLKPEDTAVYYCAATEGFYCSPTLSQGEYDYWGQGTQVTVSS
notes: Heavy-chain-only antibody from the alpaca immune phage library; expressed in CHO cells; also called 抗体SH-10
binding result [1]: binds

B5: SH-08 (antibody, V domains shown)
VH: EVQLVESGGGLVKPGGSLRLSCAASGFTFSSYSMNWVRQAPGKGLEWVSSISSSSSYIYYADSVKGRFTISRDNAKNSLYLQMNSLRAEDTAVYYCARDFPSPSGGRGFRPTTARGYGMDVWGQGTTVTVSS
VL: QSALTQPASVSGSPGQSIIISCTGSKSDIGTYNFVSWYQQHPGKAPNVIIYNVNKRPSGVSDRFSGSKSGNTASLTISGLQAEDEADFYCSSYTSSGTHVFGSGTKVIVL
notes: From the human natural phage display library; also called 抗体SH-08; not shown: 轻链恒定区
binding result [1]: binds

B6: SH-03 (antibody, V domains shown)
VH: QVQLQQSGPELVKPGASVKISCKASGYTFTDYYINWLRQKPGQGLEWIGWIYPGSANTNYNEKFKGKAILTVDTSSSTAYMQLSSLTSEDTAVYFCARWLLRSAYWGQGTLVTVSA
VL: DIVLSQSPAILSASPGEKVTMTCRASSSVSYMYWYQQKPGSSPKPWIYATSNLASGVPARFSGSGSGTSYSLTISRVEAEDAATYYCQQWSSNPYTFGGGTKLEIK
notes: From hybridoma; also called 抗体SH-03; not shown: 轻链恒定区
binding result [1]: binds

B7: SH-05 (antibody, V domains shown)
VH: EVQLVQSGGVVVQPGGSLRLSCAASGFTFDDYAMHWVRQAPGKGLEWVSLISWDGGSTYYADSVKGRFTISRDNSKNTLYLQMNSLRAEDTAVYYCARNSGRRNWFDPWGQGTLVTVSS
VL: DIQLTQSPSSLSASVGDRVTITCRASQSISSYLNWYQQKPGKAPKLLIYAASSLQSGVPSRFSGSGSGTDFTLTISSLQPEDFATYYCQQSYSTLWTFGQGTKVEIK
notes: From the human natural phage display library; also called 抗体SH-05; not shown: 轻链恒定区
binding result [1]: binds

B8: SH-09 (antibody, human IgG1, V domains shown)
VH: QVQLVESGGGLVQPGGSLRLSCTASGFNLDFYTIGWFLQAPGKEREGVSCISNSGGSSVYADSVKGRFTISRDSAKNTVYLQMNSLDPEDTAVYYCAALAGRGCMRSPITTDEYDSWGQGTQVTVSS
notes: Heavy-chain-only antibody from the alpaca immune phage library; expressed in CHO cells; also called 抗体SH-09
binding result [1]: binds
